Test in all cases: high-speed atomic force microscopy (HS-AFM); channel held by its C-terminal His-tag on Ni2+-coated mica, reconstituted into a DMPC bilayer, extracellular side imaged; 20 mM Tris pH 7.4, 150 mM NaCl (WT, E32Q/N49K) or 50 mM NaCl (N49K); 5 or 10 frames/s; no membrane potential
The target in experiment [1] is NavAb channel E32Q/N49K mutant, C-terminal cytoplasmic domain truncated, C-terminal His-tag (Arcobacter butzleri) (UniProt A8EVM5).
Experiment [2] addresses NavAb channel N49K mutant, C-terminal cytoplasmic domain truncated, C-terminal His-tag (Arcobacter butzleri) (UniProt A8EVM5).
The target in experiment [3] is NavAb channel, wild type, C-terminal cytoplasmic domain truncated, C-terminal His-tag (Arcobacter butzleri) (UniProt A8EVM5).

As for “NavAb channel E32Q/N49K mutant, C-terminal cytoplasmic domain truncated, C-terminal His-tag (from UniProt A8EVM5 1-230) (natural protein)”, in experiment [1], the size of the VSD-VSD oligomer between channels worked out at 2 and the stoichiometry N (as a rule, a count of units in the complex or per binding partner) worked out at 4.

“NavAb channel N49K mutant, C-terminal cytoplasmic domain truncated, C-terminal His-tag (from UniProt A8EVM5 1-230) (natural protein)” had a stoichiometry N in experiment [2] of 4.

In turn, “NavAb channel, wild type, C-terminal cytoplasmic domain truncated, C-terminal His-tag (from UniProt A8EVM5 1-230) (natural protein)” registered a stoichiometry N in experiment [3] of 4.

The record behind these values is paper PMC10730821.
